Reference: article doi:10.1101/2021.04.27.441613 (bioRxiv, 2021)

Biological target: the molecule itself
Assay: SEC + other: SDS-PAGE

B1: dLanYFP (other)
chain: MSLPATHELHIFGSFNGVDFDMVGRGTGNPNDGYEELNLKSTKGALQFSPWILVPQIGYGFHQYLPFPDGMSPFQAAMKDGSGYQVHRTMQFEDGASLTSNYRYTYEGSHIKGEFQVKGTGFPADGPVMTNSLTAADWCVTKMLYPNDKTIISTFDWTYTTGSGKRYQSTVRTTYTFAKPMAANILKNQPMFVFRKTELKHSKTELNFKEWQKAFTDVM
stoichiometry N: 2
